Reference: US20060110730A1, “Methods and compositions for regulation and manipulation of steroidogenesis” (priority 2002, published 2006)

What was measured:
[1] = system: COS-1 cells; test: Pregnenolone production of COS-1 cells co-transfected with F2 (cholesterol side-chain cleavage fusion) and StAR constructs; format: cell-based, monkey; conditions: for increase in steroidogenesis over the StAR-independent level seen with F2 alone: accumulated pregnenolone after 48 h; for steroidogenic activity (in words): pregnenolone in medium
Procedure: COS-1 cells were grown, transfected and assayed for pregnenolone production as Described (Stocco, D. M. & Clark, B. J. Regulation of the acute production of steroids in steroidogenic cells. Endocr. Rev. 17, 221-244 (1996)), (Bose, H. S., et al. N-218 MLN64, a protein with StAR-like steroidogenic activity is folded and cleaved similarly to StAR. Biochemistry 39, 11722-11731 (2000)). Three independent transfections, each performed in triplicate, were done for each construct.
To determine the location of biological activity of the mitochondrial protein StAR, wild-type and StAR proteins with an N-terminal deletion and StAR proteins fused to a protein that would function to immobilize the StAR protein in one of the four mitochondrial compartments were evaluated for their ability to catalyze steroidogenesis. Nonsteroidogenic COS-I monkey kidney cells were grown, transfected and assayed for pregnenolone production as described (Stocco, D. M. and Clark, B. J., Endocr Rev 17, 221-244 (1996); Bose, H. S., et al., Biochemistry 39, 11722-11731 (2000)). Three independent transfections, each performed in triplicate, were done for each construct. The cells were transfected with a vector expressing full length StAR or a vector expressing N-62 StAR, Tom-StAR, StAR-Tom, Tim44-StAR, or Tim9-StAR. Tom20, Tim9 and Tim44 cDNAs were prepared from human adrenal RNA by RT-PCR. N-62 StAR cDNA including an enterokinase linker fused to 63-285 StAR was derived from a bacterial expression vector (see Artemenko, et al., J. Biol. Chem. 276: 46583-46596 (2001). Tom/StAR is Tom20 fused to 63-285 through GSDDDDK, which contains Bam HI and enterokinase sites (Bam/EK linker). StAR/Tom is 1-285 StAR fused to Tom20 through Eco RI/EK linker (GFDDDDK). Tim9/StAR contains the 25 amino acid mitochondrial leader of cytochrome c oxidase subunit IV (Bose et al, Biochemistry, 37: 9768-9775 (1998)) fused to Tim9 linked to N-30 StAR through the Bam/EK linker. Tim44/StAR is Tim44 fused to 63-285 StAR through the Bam/EK linker. Tom20 has 50 amino-terminal residues embedded in the OMM and 95 residues in the cytoplasm (Abe, Y., et al., Cell 100, 551-560 (2000)). Expression of Tom20 with N-62 StAR fused to its carboxy-terminus (Tom/StAR) affixed StAR to the cytoplasmic side of the OMM. Expression of Tim9, which is normally confined to the IMS (Bauer et al, J. Inher. Metab. Dis. 24: 166-180 (2001)), fused to N-30 StAR (Tim9/StAR) localized StAR to the IMS. Expression of Tim44, which lies on the matrix side of the IMM, fused to N-62 StAR (Tim44/StAR), targeted StAR to the matrix. […]

[2] = system: MA-10 mitochondria; test: Steroidogenic activity (pregnenolone) of isolated MA-10 mitochondria incubated with StAR constructs from cell-free transcription/translation; format: biochemical, mouse
Procedure: (§1) StAR constructs were bioassayed (Bose, H. S., et al. N-218 MLN64, a protein with StAR-like steroidogenic activity is folded and cleaved similarly to StAR. Biochemistry 39, 11722-11731 (2000)) with MA-10 mitochondria. Linked transcription/translation system was added directly to the mitochondria except when Tim9/StAR was immunoprecipitated with anti-StAR antiserum (Bose, H. S., et al. The active form of the steroidogenic acute regulatory protein, StAR, appears to be a molten globule. Proc. Natl Acad. Sci. USA 96, 7250-7255 (1999)), collected with protein A-sepharose CL-4B (Pharmacia), washed, dissociated from the sepharose-antibody complex at pH 3.0, neutralized and added directly to mitochondria. Immunoassays of pregnenolone were performed after incubation at 378 C. for 1 h; immunoblotting was performed as described (Bose, H. S., et al. N-218 MLN64, a protein with StAR-like steroidogenic activity is folded and cleaved similarly to StAR. Biochemistry 39, 11722-11731 (2000)).
as §1, with “al.,” for “al. N-218 MLN64, a protein with StAR-like steroidogenic activity is folded and cleaved similarly to StAR.”, “al., Proc” for “al. The active form of the steroidogenic acute regulatory protein, StAR, appears to be a molten globule. Proc.”, “Acad Sci” for “Acad. Sci.”, “harvested” for “collected”, “37°” for “378 C.”

[3] = system: MA-10 cell mitochondria; test: Mitochondrial import and cleavage kinetics of StAR constructs; format: biochemical, mouse; conditions: 26° C., phosphorimager quantitation of uncleaved and cleaved imported protein
Source text: StAR constructs were cloned into the BglII/EcoRI site of pSP6, transcribed with SP6 RNA polymerase (Promega) and translated with [35S]methionine as described (Chuck, S. & Lingappa, V. Apolipoprotein B intermediates. Nature 356, 115-116 (1992)). Mitochondria, isolated from 5 £ 106 MA-10 or COS-1 cells by hypotonic shock and homogenization (Bose, H. S., et al. N-218 MLN64, a protein with StAR-like steroidogenic activity is folded and cleaved similarly to StAR. Biochemistry 39, 11722-11731 (2000)) were suspended in […] of 125 mM sucrose, 1 mM ATP, 1 mM NADH, 50 mM KCl, 0.05 mM ADP, 2 mM DTT, 5 mM Na-succinate, 2 mM Mg(OAc)2, 2 mM KH2PO4 and 10 mM HEPES buffer at pH 7.4. Mitochondria (50 ml) and 1 ml of the transcription/translationmix were incubated at 268 C. for various times; import was terminated with 1 ml 1 mM mCCCP (Calbiochem). Some mitochondria were extracted with fresh 100 mM Na2CO3, pH 11.5, for 15 min at 48 C. and spun at 15,000 g for 15 min at 48 C. to pellet membranes. Some membranes were incubated with 0.1% digitonin (Sigma) for 15 min at 48 C. and spun at 144,000 g for 1 h at 48 C. to pelletOMMfragments. […] Analysis was by SDS-polyacrylamide gel electrophoresis (SDS-PAGE) and phosphorimager quantification (Molecular Dynamics, Storm 860). […]

Molecule	increase in steroidogenesis over the StAR-independent level seen with F2 alone [1]	steroidogenic activity (in words) [1]	steroidogenic activity (in words) ([1]; listed as full-length (1-285) StAR)	increase in steroidogenesis ([2]; MA-10 mitochondria incubated with cell-free transcription/translation system expressing the construct, versus control system)	activity of MA-10 cell mitochondria (in words) ([2]; equal amounts of each protein added, 1 h)	steroidogenic activity of reconstituted mitochondria (in words) ([2]; mitochondria reconstituted from OMM and mitoplast fractions)	import speed (ranking) [3]
CC(C)CC[C@@H](O)[C@@H](C)[C@H]1CC[C@H]2[C@@H]3CC=C4C[C@@H](O)CC[C@]4(C)[C@H]3CC[C@]12C [22R-OH-cholesterol, 22R-hydroxycholesterol, reference compound]	~20 fold						
full-length StAR: full-length (1-285) steroidogenic acute regulatory protein (protein, UniProt P49675 1-285, looked up, full-length, full-length (1-285) steroidogenic acute regulatory protein) MLLATFKLCAGSSYRHMRNMKGLRQQAVMAISQELNRRALGGPTPSTWINQVRRRSSLLGSRLEETLYSDQELAYLQQGEEAMQKALGILSNQEGWKKESQQDNGDKVMSKVVPDVGKVFRLEVVVDQPMERLYEELVERMEAMGEWNPNVKEIKVLQKIGKDTFITHELAAEAAGNLVGPRDFVSVRCAKRRGSTCVLAGMATDFGNMPEQKGVIRAEHGPTCMVLHPLAGSPSKTKLTWLLSIDLKGWLPKSIINQVLSQTQVDFANHLRKRLESHPASEARC	6 fold	equivalent at all times measured after transfection	about half the maximal capacity of the cells	~6 fold	equally active	active	Scc/N-62 StAR>>Scc/N-30 StAR>full-length StAR
